{
  "source": "paper PMC7488863",
  "about": "“Overexpression of transcription factor SlWRKY28 improved the tolerance of Populus davidiana × P. bolleana to alkaline salt stress”",
  "binders": {"B1": {"name": "W-box probe (Biotin-Pr) (dsDNA)", "DNA 1": "GGAACTTGACCTTGACCTTAGGGCTGCAGGAATTCG", "DNA 2": "CGAATTCCTGCAGCCCTAAGGTCAAGGTCAAGTTCC"}, "B2": {"name": "W-box cold probe (Cold-Pr) (dsDNA)", "DNA 1": "GGAACTTGACCTTGACCTTAGGGCTGCAGGAATTCG", "DNA 2": "CGAATTCCTGCAGCCCTAAGGTCAAGGTCAAGTTCC"}},
  "key": {"[1]": {"molecular_target": "T1, GST-SlWRKY28 (Salix linearistipularis, UniProt A0A4D6JIT6 1-474)", "T1 sequence (A0A4D6JIT6 entry or part of it)": "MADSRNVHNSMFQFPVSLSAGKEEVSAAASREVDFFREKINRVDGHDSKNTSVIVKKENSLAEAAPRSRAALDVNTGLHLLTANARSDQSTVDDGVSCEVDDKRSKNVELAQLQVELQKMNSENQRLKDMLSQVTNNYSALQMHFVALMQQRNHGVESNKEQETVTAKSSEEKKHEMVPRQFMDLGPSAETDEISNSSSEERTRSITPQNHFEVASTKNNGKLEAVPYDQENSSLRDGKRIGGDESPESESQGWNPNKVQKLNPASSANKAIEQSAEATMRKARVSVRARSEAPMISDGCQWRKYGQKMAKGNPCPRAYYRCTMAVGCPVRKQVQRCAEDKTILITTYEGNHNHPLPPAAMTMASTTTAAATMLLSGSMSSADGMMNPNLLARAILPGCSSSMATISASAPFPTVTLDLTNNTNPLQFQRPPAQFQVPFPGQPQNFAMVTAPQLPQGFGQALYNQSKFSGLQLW", "assay": "EMSA; EMSA/gel-shift binding buffer (Beyotime kit, 5x stock, 2 uL per 10 uL reaction), 25 C, 20 min; salt and pH not stated", "conditions": "protein: recombinant; tags: N-terminal GST (pGEX-6p-3); label: biotin (both probe strands); blunt"}, "[2]": {"molecular_target": "T1, GST-SlWRKY28", "assay": "competition; 10x and 50x unlabeled probe against Biotin-Pr; complex signal weak with cold probe; EMSA/gel-shift binding buffer (Beyotime kit, 5x stock, 2 uL per 10 uL reaction), 25 C, 20 min; salt and pH not stated", "conditions": "protein: recombinant; tags: N-terminal GST (pGEX-6p-3); blunt"}},
  "data": [
    {"binder": "B1", "values": [
      {"measurement": "binding result", "setting": "[1]", "result": "binds"}
    ]},
    {"binder": "B2", "values": [
      {"measurement": "binding result", "setting": "[2]", "result": "binds"}
    ]}
  ]
}
